Here are results for 6 molecules from paper PMC11470070, “Structural basis for synthase activation and cellulose modification in the E. coli Type II Bcs secretion system” (Nature Communications, 2024).

For series [1], the target named is T1, BcsE (in the BcsR2Q2AB6E2F2G3 Bcs macrocomplex) (Escherichia coli, UniProt P37657).
T1 construct: full-length, N-terminal Strep II tag; co-expressed Bcs macrocomplex in E. coli NiCo21(DE3), anti-FLAG purified; with Cellulose biosynthesis protein BcsF; Cellulose biosynthesis protein BcsR; Cellulose biosynthesis protein BcsQ; Cellulose synthase catalytic subunit [UDP-forming]; Cellulose biosynthesis protein BcsG
Description: cryo-EM structure of the complex. Format: binding. The settings on record: intercalated c-di-GMP dimer per BcsE protomer at the REC*-GGDEF* dual I-site (R306ATD, R415TGD); 2-4 uM c-di-GMP, 5 mM MgCl2, pH 8.0.

Series [2] addresses T2, BcsQ (BcsR2Q2 in the Bcs macrocomplex) (Escherichia coli, UniProt P0DP92).
T2 construct: full-length untagged BcsQ with His-BcsR; co-expressed Bcs macrocomplex in E. coli NiCo21(DE3), anti-FLAG purified; nucleotide-driven sandwich dimer; with Cellulose biosynthesis protein BcsR; Cellulose synthase catalytic subunit [UDP-forming]; Cellulose biosynthesis protein BcsF; Cellulose biosynthesis protein BcsG
T2 sequence (P0DP92 1-250): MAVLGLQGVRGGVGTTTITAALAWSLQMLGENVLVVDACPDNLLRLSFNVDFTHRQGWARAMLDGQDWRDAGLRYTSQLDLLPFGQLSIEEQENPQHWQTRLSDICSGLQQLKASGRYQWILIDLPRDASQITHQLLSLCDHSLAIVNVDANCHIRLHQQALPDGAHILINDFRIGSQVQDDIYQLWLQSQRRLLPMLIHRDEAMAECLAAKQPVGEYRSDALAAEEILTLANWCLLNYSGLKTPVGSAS
T2 sequence (P0ADJ3 1-62 partner): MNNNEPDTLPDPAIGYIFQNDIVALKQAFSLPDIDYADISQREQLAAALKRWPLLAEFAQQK
Description: cryo-EM structure of the complex. Format: binding. The following applies: nucleotide-driven BcsQ sandwich dimer; text says ATP-bound, but 10 uM AppCp (non-hydrolysable analogue) was in the purification buffers; 5 mM MgCl2, pH 8.0.

Series [3] deals with the molecule itself. Description: cryo-EM structure; Bcs macrocomplex co-expressed in E. coli and purified on anti-FLAG gel by BcsA^HA-FLAG, 20 mM HEPES pH 8.0, 120 mM NaCl, 5 mM MgCl2, 10 μM AppCp, 4 μM c-di-GMP, 0.01% LM-NPG; class of the c-di-GMP-saturated macrocomplex with local refinements; the BcsB crown refined from all particles.
Series [4] concerns the molecule itself. As to the kind of experiment: cryo-EM structure; same sample and grids as a1; class of particles with a c-di-GMP-free BcsA synthase (non-saturated macrocomplex), with local refinements.
The target in series [5] is T3, BcsA cellulose synthase (BcsA^HA-FLAG) (E. coli, UniProt P37653 1-872).
T3 construct: BcsA, E. coli; amplified within the genomic region bcsRQA^HA-FLAGB from genomic DNA of the E. coli 1094 bcsA^HA-FLAG strain; domains NTD, TMD, GT, PilZ, C-terminal tail; Expressed from the whole genomic region bcsRQAB of strain 1094; One copy in the macrocomplex; source: for the BcsF variants E. coli Δbcs BL21*(DE3)
T3 sequence: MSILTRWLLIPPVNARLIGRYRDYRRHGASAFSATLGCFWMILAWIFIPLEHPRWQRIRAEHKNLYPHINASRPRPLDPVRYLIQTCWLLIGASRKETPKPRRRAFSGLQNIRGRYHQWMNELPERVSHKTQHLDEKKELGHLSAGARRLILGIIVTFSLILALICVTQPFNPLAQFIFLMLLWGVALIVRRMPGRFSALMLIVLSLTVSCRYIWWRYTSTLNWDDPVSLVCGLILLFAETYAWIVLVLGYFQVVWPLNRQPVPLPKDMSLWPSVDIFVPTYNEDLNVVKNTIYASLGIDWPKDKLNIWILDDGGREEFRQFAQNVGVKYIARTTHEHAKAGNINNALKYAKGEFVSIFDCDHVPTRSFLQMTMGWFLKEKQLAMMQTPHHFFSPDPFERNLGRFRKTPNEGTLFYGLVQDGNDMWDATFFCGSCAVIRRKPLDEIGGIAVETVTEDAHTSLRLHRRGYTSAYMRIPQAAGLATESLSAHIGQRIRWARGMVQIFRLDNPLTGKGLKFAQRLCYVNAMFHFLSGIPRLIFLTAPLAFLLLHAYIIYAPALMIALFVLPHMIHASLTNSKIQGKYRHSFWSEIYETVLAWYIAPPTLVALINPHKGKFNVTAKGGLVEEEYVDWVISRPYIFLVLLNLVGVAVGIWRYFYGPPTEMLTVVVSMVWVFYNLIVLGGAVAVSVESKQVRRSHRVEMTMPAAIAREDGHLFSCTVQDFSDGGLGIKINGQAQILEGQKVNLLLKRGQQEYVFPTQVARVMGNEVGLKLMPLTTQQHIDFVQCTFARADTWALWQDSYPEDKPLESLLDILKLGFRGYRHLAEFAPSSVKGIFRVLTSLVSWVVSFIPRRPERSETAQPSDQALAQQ
Described as above. The following applies: both partners purified.

As to `Nc1nc2c(ncn2[C@@H]2O[C@@H]3COP(=O)(O)O[C@H]4[C@@H](O)[C@H](n5cnc6c(=O)[nH]c(N)nc65)O[C@@H]4COP(=O)(O)O[C@H]3[C@H]2O)c(=O)[nH]1` [c-di-GMP], the “cryo-EM structure of the complex” value in series [1] is “An intercalated c-di-GMP dimer is found at each cis-interdomain interface of a closed BcsE”.
Consider `Nc1ncnc2c1ncn2[C@@H]1O[C@H](COP(=O)(O)OP(=O)(O)OP(=O)(O)O)[C@@H](O)[C@H]1O` [ATP], for which, in series [2], the “cryo-EM structure of the complex” value is “the BcsR copies stabilize the ATP-bound BcsQ apical dimer”.

B1: BcsB co-polymerase (natural protein, E. coli, UniProt P37652 26-779, looked up)
chain: TPATQPLINAEPAVAAQTEQNPQVGQVMPGVQGADAPVVAQNGPSRDVKLTFAQIAPPPGSMVLRGINPNGSIEFGMRSDEVVTKAMLNLEYTPSPSLLPVQSQLKVYLNDELMGVLPVTKEQLGKKTLAQMPINPLFISDFNRVRLEFVGHYQDVCEKPASTTLWLDVGRSSGLDLTYQTLNVKNDLSHFPVPFFDPSDNRTNTLPMVFAGAPDVGLQQASAIVASWFGSRSGWRGQNFPVLYNQLPDRNAIVFATNDKRPDFLRDHPAVKAPVIEMINHPQNPYVKLLVVFGRDDKDLLQAAKGIAQGNILFRGESVVVNEVKPLLPRKPYDAPNWVRTDRPVTFGELKTYEEQLQSSGLEPAAINVSLNLPPDLYLMRSTGIDMDINYRYTMPPVKDSSRMDISLNNQFLQSFNLSSKQEANRLLLRIPVLQGLLDGKTDVSIPALKLGATNQLRFDFEYMNPMPGGSVDNCITFQPVQNHVVIGDDSTIDFSKYYHFIPMPDLRAFANAGFPFSRMADLSQTITVMPKAPNEAQMETLLNTVGFIGAQTGFPAINLTVTDDGSTIQGKDADIMIIGGIPDKLKDDKQIDLLVQATESWVKTPMRQTPFPGIVPDESDRAAETRSTLTSSGAMAAVIGFQSPYNDQRSVIALLADSPRGYEMLNDAVNDSGKRATMFGSVAVIRESGINSLRVGDVYYVGHLPWFERVWYALANHPILLAVLAAISVILLAWVLWRLLRIISRRRLNPDNE
notes: BcsB, E. coli; amplified within the genomic region bcsRQA^HA-FLAGB of E. coli 1094; periplasmic modules CBD1-FD1-CBD2-FD2 and a C-terminal tail-anchor (TA); Six copies in the macrocomplex; the strain used is 1094; also called BcsB^TA (tail-anchor); periplasmic crown
Turning to B1, the “stoichiometry N” value in series [3] was found to be 6.

B2: BcsF (natural protein, E. coli)
chain: MMTISDIIEIIVVCALIFFPLGYLARHSLRRIRDTLRLFFAKPRYVKPAGTLRRTEKARATKK
notes: BcsF, E. coli; amplified within the genomic region bcsEFG; single transmembrane helix, amphipathic helical extension and cytosolic C-terminal tail; Two copies in the macrocomplex; also called inner membrane polypeptide BcsF; source: for the BcsF variants experiment E. coli Δbcs BL21*(DE3)
Regarding B2, in series [4], the “stoichiometry N” value turned out to be 2.

B3: BcsG pEtN-transferase (enzyme, E. coli)
chain: MTQFTQNTAMPSSLWQYWRGLSGWNFYFLVKFGLLWAGYLNFHPLLNLVFAAFLLMPLPRYSLHRLRHWIALPIGFALFWHDTWLPGPESIMSQGSQVAGFSTDYLIDLVTRFINWQMIGAIFVLLVAWLFLSQWIRITVFVVAILLWLNVLTLAGPSFSLWPAGQPTTTVTTTGGNAAATVAATGGAPVVGDMPAQTAPPTTANLNAWLNNFYNAEAKRKSTFPSSLPADAQPFELLVINICSLSWSDIEAAGLMSHPLWSHFDIEFKNFNSATSYSGPAAIRLLRASCGQTSHTNLYQPANNDCYLFDNLSKLGFTQHLMMGHNGQFGGFLKEVRENGGMQSELMDQTNLPVILLGFDGSPVYDDTAVLNRWLDVTEKDKNSRSATFYNTLPLHDGNHYPGVSKTADYKARAQKFFDELDAFFTELEKSGRKVMVVVVPEHGGALKGDRMQVSGLRDIPSPSITDVPVGVKFFGMKAPHQGAPIVIEQPSSFLAISDLVVRVLDGKIFTEDNVDWKKLTSGL
notes: BcsG, E. coli; amplified within the genomic region bcsEFG; N-terminal domain of 5 transmembrane helices, 48-residue linker, C-terminal pEtN-transferase domain (the last not resolved in the maps); Three copies in the macrocomplex; also called BcsG^NTD; BcsG3
Consider B3, for which the “stoichiometry N” value in series [5] and in series [4] was 3 in each case.

B4: BcsQ (natural protein, E. coli)
chain: MAVLGLQGVRGGVGTTTITAALAWSLQMLGENVLVVDACPDNLLRLSFNVDFTHRQGWARAMLDGQDWRDAGLRYTSQLDLLPFGQLSIEEQENPQHWQTRLSDICSGLQQLKASGRYQWILIDLPRDASQITHQLLSLCDHSLAIVNVDANCHIRLHQQALPDGAHILINNFRIGSQVQDDIYQLWLQSQRRLLPMLIHRDEAMAECLAAKQPVGEYRSDALAAEEILTLANWCLLNYSGLKTPVGSKS
notes: BcsQ, E. coli; amplified within the genomic region bcsRQA^HA-FLAGB of E. coli 1094; the strain used is 1094; also called SIMIBI family NTPase BcsQ
B4: the “stoichiometry N” value in series [3] is 2.

As usually defined, the stoichiometry N is the number of molecules, sites or subunits per partner or assembly.
